# Measurements taken from patent US20240010751A1 (EXELIXIS, published 2024).
# Numbering of substitutions follows the chain as printed.
# B1: C40 x P31.2 bispecific antibody in a BC44 format (bispecific antibody)
# chain 1: not shown
# chain 2: EVQLVESGGGLVQPGGSLRLSCAASGFTFSYYYIHWVRQAPGKGLEWVAWIDPYGHSTTYADSVKGRFTISADTSKNTAYLQMNSLRAEDTAVYYCARGGRGAMDYWGQGTLVTVSSASPREPQVYTLPPCRDELTKNQVSLTCLVKGFYPSDIAVEWESNGQPENNYKTTPPVLDSDGSFFLYSKLTVDKSRWQQGNVFSCSVMHEALHNHYTQKSLSLSPGK
# chain 3: DIQMTQSPSSLSASVGDRVTITCRASQSVSSAVAWYQQKPGKAPKLLIYSASSLYSGVPSRFSGSRSGTDFTLTISSLQPEDFATYYCQQFGAEPITFGQGTKVEIKRTVAAPSVFIFPPSDEQLKSGTASVVCLLNNFYPREAKVQWKVDNALQSGNSQESVTEQDSKDSTYSLSSTLTLSKADYEKHKVYACEVTHQGLSSPVTKSFNRGECDKTHTCPPCPAPELLGGPSVFLFPPKPKDTLMISRTPEVTCVVVDVSHEDPEVKFNWYVDGVEVHNAKTKPREEQYNSTYRVVSVLTVLHQDWLNGKEYKCKVSNKALPAPIEKTISKAKGQPREPQVCTLPPSREEMTKNQVSLSCAVKGFYPSDIAVEWESNGQPENNYKTTPPVLDSDGSFFLVSKLTVDKSRWQQGNVFSCSVMHEALHNHYTQKSLSLSPGK
# chain 4: EVQLVESGGGLVQPGGSLRLSCAASGFTFSSYYIHWVRQAPGKGLEWVATISSGGGFTYYADSVKGRFTISADTSKNTAYLQMNSLRAEDTAVYYCARGYTLTPVLDYWGQGTLVTVSSASTKGPSVFPLAPSSKSTSGGTAALGCLVKDYFPEPVTVSWNSGALTSGVHTFPAVLQSSGLYSLSSVVTVPSSSLGTQTYICNVNHKPSNTKVDKKVEPPKSC
# notes: B-Body of four polypeptide chains, BC44 format; CD47 arm from C40, PD-L1 arm from P31.2; also called C40 × P31.2
# B2: C59 x P31.2 bispecific antibody in a BC44 format (bispecific antibody)
# chain 1: not shown
# chain 2: B1 chain 2 with S30T, Y31S, W50Y, P53S, Y54K, G55H, H56G, S57T, T59Q, G102S
# chain 3: B1 chain 3
# chain 4: B1 chain 4
# notes: B-Body of four polypeptide chains, BC44 format; CD47 arm from C59, PD-L1 arm from P31.2; also called C59 × P31.2
# B3: C40 x P24 bispecific antibody in a BC44 format (bispecific antibody)
# chain 1: not shown
# chain 2: B1 chain 2
# chain 3: B1 chain 3 with F91V, G92S, A93Y, E94S, I96Y
# chain 4: EVQLVESGGGLVQPGGSLRLSCAASGFTFDQYYIHWVRQAPGKGLEWVAEIYPAGSYTYYADSVKGRFTISADTSKNTAYLQMNSLRAEDTAVYYCARGPYSVRYALDYWGQGTLVTVSSASTKGPSVFPLAPSSKSTSGGTAALGCLVKDYFPEPVTVSWNSGALTSGVHTFPAVLQSSGLYSLSSVVTVPSSSLGTQTYICNVNHKPSNTKVDKKVEPPKSC
# notes: B-Body of four polypeptide chains, BC44 format; CD47 arm from C40, PD-L1 arm from P24; also called C40 × P24
# B4: C56 x P22 bispecific antibody in a BC44 format (bispecific antibody)
# chain 1: not shown
# chain 2: B1 chain 2 with S30T, W50F, G55S, H56G, T59E, R101L, G102Y, M104L
# chain 3: B1 chain 3 with F91Y, G92Y, A93T, E94S, I96Y
# chain 4: EVQLVESGGGLVQPGGSLRLSCAASGFTFSSYYIHWVRQAPGKGLEWVAWITSHGYSTKYADSVKGRFTISADTSKNTAYLQMNSLRAEDTAVYYCARDSVIYGLDYWGQGTLVTVSSASTKGPSVFPLAPSSKSTSGGTAALGCLVKDYFPEPVTVSWNSGALTSGVHTFPAVLQSSGLYSLSSVVTVPSSSLGTQTYICNVNHKPSNTKVDKKVEPPKSC
# notes: B-Body of four polypeptide chains, BC44 format; CD47 arm from C56, PD-L1 arm from P22; also called C56 × P22
# B5: C59 x P22 bispecific antibody in a BC44 format (bispecific antibody)
# chain 1: not shown
# chain 2: B1 chain 2 with S30T, Y31S, W50Y, P53S, Y54K, G55H, H56G, S57T, T59Q, G102S
# chain 3: B1 chain 3 with F91Y, G92Y, A93T, E94S, I96Y
# chain 4: B4 chain 4
# notes: B-Body of four polypeptide chains, BC44 format; CD47 arm from C59, PD-L1 arm from P22; also called C59 × P22
# B6: C40 x P24 (silent Fc) bispecific antibody in a BC44 format (bispecific antibody)
# chain 1: not shown
# chain 2: B1 chain 2
# chain 3: B1 chain 3 with F91V, G92S, A93Y, E94S, I96Y, L228A, L229A, P323K
# chain 4: B3 chain 4
# B7: antibody designated P24 (antibody, V domains shown)
# VH: EVQLVESGGGLVQPGGSLRLSCAASGFTFDQYYIHWVRQAPGKGLEWVAEIYPAGSYTYYADSVKGRFTISADTSKNTAYLQMNSLRAEDTAVYYCARGPYSVRYALDYWGQGTLVT
# VL: DIQMTQSPSSLSASVGDRVTITCRASQSVSSAVAWYQQKPGKAPKLLIYSASSLYSGVPSRFSGSRSGTDFTLTISSLQPEDFATYYCQQVSYSPYTFGQGTKVEIK
# notes: Anti-PD-L1
# B8: C40 x P24 bispecific antibody in a BC1 format (bispecific antibody)
# chain 1: not shown
# chain 2: B1 chain 2 with L128D, C131S, P222G, G223E, K224C
# chain 3: B1 chain 3 with F91V, G92S, A93Y, E94S, I96Y
# chain 4: B3 chain 4
# notes: B-Body of four polypeptide chains, BC1 format; CD47 arm from C40, PD-L1 arm from P24; also called C40 × P24
# B9: C56 x P22 bispecific antibody in a BC1 format (bispecific antibody)
# chain 1: not shown
# chain 2: EVQLVESGGGLVQPGGSLRLSCAASGFTFTYYYIHWVRQAPGKGLEWVAFIDPYSGSTEYADSVKGRFTISADTSKNTAYLQMNSLRAEDTAVYYCARGGLYALDYWGQGTLVTVSSASPREPQVYTDPPSRDELTKNQVSLTCLVKGFYPSDIAVEWESNGQPENNYKTTPPVLDSDGSFFLYSKLTVDKSRWQQGNVFSCSVMHEALHNHYTQKSLSLSGEC
# chain 3: B1 chain 3 with F91Y, G92Y, A93T, E94S, I96Y
# chain 4: B4 chain 4
# notes: B-Body of four polypeptide chains, BC1 format; CD47 arm from C56, PD-L1 arm from P22; also called C56 × P22
# B10: C59 x P22 bispecific antibody in a BC1 format (bispecific antibody)
# chain 1: not shown
# chain 2: B9 chain 2 with Y31S, F50Y, P53S, Y54K, S55H, S57T, E59Q, L101R, Y102S, L104M
# chain 3: B1 chain 3 with F91Y, G92Y, A93T, E94S, I96Y
# chain 4: B4 chain 4
# notes: B-Body of four polypeptide chains, BC1 format; CD47 arm from C59, PD-L1 arm from P22; also called C59 × P22
# B11: C40 x P31.2 bispecific antibody in a BC1 format (bispecific antibody)
# chain 1: not shown
# chain 2: B1 chain 2 with L128D, C131S, P222G, G223E, K224C
# chain 3: B1 chain 3
# chain 4: B1 chain 4
# notes: B-Body of four polypeptide chains, BC1 format; CD47 arm from C40, PD-L1 arm from P31.2; also called C40 × P31.2
# Target: T1, CD47 and PD-L1 together on the surface of the same cells (CD47 PD-L1 TCA CHO cells); PD-L1 MDA-MB-231 cells; … (Homo sapiens (Human), UniProt Q08722 19-323; Q9NZQ7 19-290)
# Experiment: flow cytometry on PD-L1 MDA-MB-231 cells (both targets on the cells); BC44 format
row,EC50,Binder
1,0.69 nM,B1
2,2.5 nM,B2
3,3.1 nM,B3
4,1.2 nM,B4
5,1.5 nM,B5

# Target: T2, CD47 on cells (target cells of the assays) (Homo sapiens (Human), UniProt Q08722 19-323)
# Experiment: cell-based or functional assay
row,"IC50, CD47/SIRPα Inhibition Assay, JeKo-PD-L1 Cells",Binder
1,0.26 nM,B6
2,1.26 nM,B3
3,1.2 nM,B4

# Target: T3, biotinylated human PD-L1 (extracellular domain, Acro Biosystems) (human, UniProt Q9NZQ7 19-238, biotinylated)
# T3 construct: Bought protein; also called biotinylated antigen; biotinylated human PD-L1-His Avitag; not shown: His Avitag or His tag
# Experiment: Octet in-tandem cross-competition, 100 nM biotinylated antigen on a streptavidin sensor
# T3 sequence (Q9NZQ7 19-238): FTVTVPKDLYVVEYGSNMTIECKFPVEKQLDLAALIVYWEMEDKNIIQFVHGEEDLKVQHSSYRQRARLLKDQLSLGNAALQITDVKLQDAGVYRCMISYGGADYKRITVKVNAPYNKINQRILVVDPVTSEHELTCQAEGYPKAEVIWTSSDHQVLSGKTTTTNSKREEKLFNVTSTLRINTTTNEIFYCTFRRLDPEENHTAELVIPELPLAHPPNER
row,binding result,Binder
1,binds,B7

# Target: T2, CD47 on cells (target cells of the …)
# Experiment: cell-based or functional assay
# Remark: another data set of the same source
row,"IC50, CD47/SIRPα Inhibition Assay in PD-L1 MDA-MB-231 Cells",Binder
1,0.108 nM,B1
2,0.266 nM,B2
3,0.112 nM,B3
4,0.218 nM,B4
5,0.35 nM,B5

# Target: T1, CD47 and PD-L1 together on the surface …
# Experiment: flow cytometry on Jeko-PD-L1 cells (both targets on the cells); BC44 format
row,EC50,Binder
1,0.227 nM,B1
2,0.256 nM,B2
3,0.703 nM,B3
4,0.218 nM,B4

# Target: T1, CD47 and PD-L1 together on the surface …
# Experiment: flow cytometry on CD47 PD-L1 TCA CHO cells (both targets on the cells); BC1 format
row,EC50,Binder
1,1.3 nM,B8
2,1.1 nM,B9
3,2.3 nM,B10
4,0.13 nM,B11

# Target: PD-L1 on cells (target cells of the assays) (Homo sapiens (Human), UniProt Q9NZQ7 19-290)
# Experiment: cell-based or functional assay
# PD-L1 on cells (target cells of the assays), sequence (Q9NZQ7 19-290 limits assumed): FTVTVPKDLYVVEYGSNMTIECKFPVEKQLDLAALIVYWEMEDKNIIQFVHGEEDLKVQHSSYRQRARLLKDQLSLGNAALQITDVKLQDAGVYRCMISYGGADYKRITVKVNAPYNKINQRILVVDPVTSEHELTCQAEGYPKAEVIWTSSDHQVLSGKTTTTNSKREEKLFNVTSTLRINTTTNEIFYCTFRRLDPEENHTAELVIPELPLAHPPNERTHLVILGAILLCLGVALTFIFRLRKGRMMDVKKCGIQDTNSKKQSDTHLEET
"IC50, PD-1/PD-L1 Inhibition Assay in Jeko-PD-L1 Cells","IC50, PD-1/PD-L1 Inhibition Assay in MDA-MB-231 PD-L1 Cells",Binder
0.0115 nM,1.5 nM,B1
0.274 nM,14.7 nM,B6
0.0268 nM,3.7 nM,B2
0.275 nM,1.3 nM,B3
1.99 nM,3 nM,B4
0.0481 nM,2.5 nM,B5
